Test results from patent US20240325562A1 (LINXIS B V, published 2024).

T1: recombinant rPDGFRB ectodomain (rat, UniProt Q05030 32-531)
T1 construct: extracellular domain; also called rPDGFRB-ECD; rat PDGFRB ECD
T1 sequence (looked up): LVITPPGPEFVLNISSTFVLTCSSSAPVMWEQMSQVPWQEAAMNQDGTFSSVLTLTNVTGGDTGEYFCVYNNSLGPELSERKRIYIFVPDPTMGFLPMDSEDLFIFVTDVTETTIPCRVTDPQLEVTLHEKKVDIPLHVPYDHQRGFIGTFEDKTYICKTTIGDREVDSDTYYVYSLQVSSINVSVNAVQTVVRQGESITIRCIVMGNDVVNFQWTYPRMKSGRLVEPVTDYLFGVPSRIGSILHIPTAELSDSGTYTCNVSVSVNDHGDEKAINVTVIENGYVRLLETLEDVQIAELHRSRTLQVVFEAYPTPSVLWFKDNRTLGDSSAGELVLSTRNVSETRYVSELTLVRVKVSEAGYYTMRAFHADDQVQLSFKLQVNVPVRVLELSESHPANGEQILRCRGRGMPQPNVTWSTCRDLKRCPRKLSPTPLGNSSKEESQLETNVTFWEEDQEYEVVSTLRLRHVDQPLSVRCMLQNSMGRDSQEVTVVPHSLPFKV

B1: SP01P (VHH)
VHH: EVQLVESGGGLAQAGGSLRLSCVASGNIDSANGMAWYRQAPGKQRELVAHITSGTSYYVASVEGRFTISRANAKDTWYLQMNSLKPEDTGVYYCFPIGLSAHWSQGTQVTVSS
notes: From libraries 1 and 2 (raised against hPDGFRB)
B2: SP13P (VHH)
VHH: EVQLVESGGGLVQPGGSLRLSCAASESIFSINYMAWYRQAPGKQRELVAFSIDGSSTNYVDSVRGRFTASRDNAENTLYLQMNSLKPEDTAVYYCYAQGNTWAAGVWGQGTQVTVSS
notes: as for B1
B3: SP05P (VHH)
VHH: EVQLVESGGGLVQAGGSLRLSCAASGRTSFSGYAMAWFRQAPGKERDFVASITWSYGYTYYTDSAQGRFTISRDSAKNTVYLEMNSLKPEDTAVYYCAADPKASRFRILREYAYWGQGTQVTVSS
notes: as for B1
B4: SP08P (VHH)
VHH: EVQLVESGGGLVQAGGSLRLSCAASGRTFNGYAMAWFRQAPGKERDFVASITWSYGYTYYADSAQGRFTISRDSAKNTVYLEMNSLKPEDTAVYYCAADPKASRFRILRQYAHWGQGTQVTVSS
notes: as for B1
B5: SP02P (VHH)
VHH: EVQLVESGGGLVQAGGSLRLSCAASESISSIEQMGWFRQAPGKQRALVAINTYGGRTVYTNSVEGRFTMSRDSAKNMVYLQMTSLEPEDTAVYYCYAQTTAWRGGVWGQGTQVTVSS
notes: as for B1
B6: SP10P (VHH)
VHH: EVQLVESGGGLVQAGGSLRLSCAASGRTFNGYAMGWFRQAPGKERDFVAAITWSYGYTHYAESVKGRFSISRDSANNMVYLEMNSLKPEDTAVYYCAADPKASRFRTLRRYDYWGQGTQVTVSS
notes: as for B1
B7: SP14P (VHH)
VHH: EVQLVESGGGLVQAGDSLRLSCVVSGLTFSRYGMGWFRQATGKEREFVGGISVGSSGTMYPNSVKGRFTISRDNAKSTVYLQMNSLKPEDTAVYFCAAIDQGSFVQQRDYRYWGQGTQVTVSS
notes: as for B1
B8: SP12P (VHH)
VHH: EVQLVESGGGLVQAGGSLRLSCVISGRTSPTYPMGWFRQSPGNEREFVASINWSGGWRNYADSVKGRFTISRDDAKNTVYLQMNSLKPEDTAVYYCARGQYSSGTPVYAHEYAYWGQGTQVTVSS
notes: as for B1
B9: SP20P (VHH)
VHH: EVQLVESGGGLVQAGGSLRLSCVISGRTSPTYPMGWFRQSPGNEREFVASINWSGGWRNYADSVKDRFTISRDDAKNTVYLQMNSLKPEDTAVYYCARGQYSSGTPVYAHEYAYWGQGTQVTVSS
notes: as for B1
B10: 13A8 (VHH)
VHH: EVQLVESGGGLVPAGGSLRLSCAASGRTFSNYAMGWFRQAPGKERKFVATISWSGGVTYYADSVKGRFTISRDNAKNTVYLLMNSLKPEDTAVYYCAAKRDSSSYDHRRYDYWGQGTQVTVSS
notes: On phage in the phage ELISA; purified from E. coli in the other assays
B11: 13E5 (VHH)
VHH: EVQLVESGGGLVQAGGSLRLSCAASGLTFSRYTMSWYRQAPGKEREVVAAISSGDSTYHEDSVKGRFIISRDNAKNTVYLQMNSLKTEDTAVYYCRANGPGTYWGQGTQVTVSS
notes: On phage in the phage ELISA; tail applies to the purified protein
B12: 13G12 (VHH)
VHH: EVQLVESGGGLVQAGGSLRLSCAASGRAFSISSMSWFRQAPGKERVVVASIAWSGDSTYYADSVQGRFTISKDNAKNTLSLQMNSLKPEDTAVYYCSAYTQVSVNNRYWGQGTQVTVSS
notes: the first entry is used; On phage in the phage ELISA
B13: 13B7 (VHH)
VHH: EVQLVESGGGLVQAGGSLRLSCAASRSISPMGWYRQAPGKQRELVAIMPSSGTPIYADSVQGRFTISRDNAKNTVYLQMNSLKPEDTAVYYCNVGGGYWGQGTQVTVSS
notes: as for B11
B14: 13A2 (VHH)
VHH: EVQLVESGGGLVQAGGSLRLSCAASGIIFSANTVGWYRQVPGKERDVVASITSGDSTYYGDSVRDRFTISRDNAKNTVYLQMNSLKPDDTAIYYCRARTTDGSYWGQGTQVTVSS
notes: as for B11
B15: 13B12 (VHH)
VHH: EVQLVESGGGLVQAGGSLRLSCAASGIIFGANTVGWYRQVPGKERDVVASITSVDSTYYGDSVRGRFTISRDNAKNTVYLQMNSLKPEDTAIYYCRARTTDGSYWGQGTQVTVSS
notes: as for B11
B16: 13D11 (VHH)
VHH: EVQLVESGGGLVQAGGSLRLSCAASGSIFSINYMAWYRQAPGKEREVVASMSWRRDSTYLADSVQGRFTISRNNAKNTMYLQMNSLKPEDTALYYCKANDYWGQGTQVTVSS
notes: as for B11
B17: 13A3 (VHH)
VHH: EVQLVESGGGLVQAGGSLRLSCAASGSIFRLNYMAWYRQAPGKEREVVASMSRRSDSTYLADAVQGRFTISMNNAGNTMYLQMNSLKPEDTALYYCKANDYWGQGTQVTVSS
notes: as for B11
B18: 13F4 (VHH)
VHH: EVQLVESGGGLVQAGGSLRLSCVASGSIFSINYMAWYRQTPGKEREVVASMSRRSDSTYLADAVQGRFTISRNNAGNTMYLQMNSLKPEDTALYYCKANDYWGQGTQVTVSS
notes: as for B11
B19: SP36P (VHH)
VHH: EVQLVESGGGLVQAGGSLRLSCTPSITTAGTTIMAWFRQAPGNEREFVAAIWGSKTAYGDSMKGRLTISRDNVRDNGQKTVFLQMNNLQLQDTATYYCAASSGGYVHSSTSYEIWGRGTQVTVSS
notes: From libraries 3 and 4 (raised against rPDGFRB)
B20: SP27P (VHH)
VHH: EVQLVESGGGLVQIGDSLRLSCAASGGTFNRYGMGWFRQAPGKEREFVAAIRWDGVDTNYADFVKGRFTISRYNAKNTAYLQMNSLKPEDTAVYYCAADRRGLYTKHAHRYDYWGQGTQVTVSS
notes: as for B19
B21: SP30P (VHH)
VHH: EVQLVESGGGLVQAGGSLRLSCAASRGTFGTDIMGWFRQAPGKEREFVAAISWRGANTYYGYSVKGRFTISRDNAKNTMYLQMADLKPEDTADYYCGVHLNGTPYYYASGYRYWGQGTQVTVSS
notes: as for B19
B22: SP31P (VHH)
VHH: EVQLVESGGGLVQAGGSLRLSCAASRGTFGTYIMGWFRQAPGKEREFVAAISWRGANTYYGYSVKGRFTISRDNAKNTMYLQMADLKPEDTADYYCGVHLNGTPYYYASGYRYWGQGTQVTVSS
notes: as for B19
B23: SP28P (VHH)
VHH: EVQLVESGGGLVQAGGSLRLSCAASGSIVSFNGINWYRQAPGKQREWVGGITQGGNTMYADSVRGRFTISRDNTKNTMYLQMNSLKPEDTAVYYCRRPPVASWGQGTQVTVSS
notes: as for B19
B24: 13F11-13F11-A647 (VHH)
chain: EVQLVESGGRLVQPGDSLRLSCAASGRTFSDNAMGWFRQAPGKERRFVAGISWAGGSTYYSDSVKGRFTISRDNAKNTVYLQMNSLKPEDTAVYYCAAGLRAWVQRMPKDYNYWGQGTQVTVSSGGGGSGGGGSGGGGSEVQLVESGGRLVQPGDSLRLSCAASGRTFSDNAMGWFRQAPGKERRFVAGISWAGGSTYYSDSVKGRFTISRDNAKNTVYLQMNSLKPEDTAVYYCAAGLRAWVQRMPKDYNYWGQGTQVTVSS
modifications: Alexa Fluor 647 coupled by maleimide to the C-terminal free cysteine, which is not in the letters
notes: Bivalent tandem VHH; not shown: C-terminal tail: free Cys, possible thrombin site and His6 tag

The binders below were run against T2, recombinant hPDGFRB ectodomain (human, UniProt P09619 33-532) (assay: phage ELISA and binding assay on hPDGFRB-ECD; values only in FIG. 5).
T2 construct: extracellular domain; also called hPDGFRB-ECD; human PDGFRB ECD
T2 sequence (P09619 33-532): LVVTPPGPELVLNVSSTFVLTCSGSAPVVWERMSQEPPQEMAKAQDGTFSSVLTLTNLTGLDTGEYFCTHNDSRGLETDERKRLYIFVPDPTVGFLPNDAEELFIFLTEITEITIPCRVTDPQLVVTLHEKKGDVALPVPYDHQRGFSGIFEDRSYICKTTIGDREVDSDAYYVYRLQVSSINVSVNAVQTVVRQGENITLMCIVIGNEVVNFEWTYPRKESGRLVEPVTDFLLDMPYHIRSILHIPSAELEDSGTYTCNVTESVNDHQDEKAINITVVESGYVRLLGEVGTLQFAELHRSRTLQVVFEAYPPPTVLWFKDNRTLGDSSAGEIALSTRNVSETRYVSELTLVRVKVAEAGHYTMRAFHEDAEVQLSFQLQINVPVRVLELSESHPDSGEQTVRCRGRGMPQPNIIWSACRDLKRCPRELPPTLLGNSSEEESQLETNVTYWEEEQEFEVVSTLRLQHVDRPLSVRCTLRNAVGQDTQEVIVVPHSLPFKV
B1: binds.
B2: binds.
B3: binds.
B4: binds.
B5: binds.
B6: binds.
B7: binds.
B8: binds.
B9: binds.

The binders below were run against T3, recombinant human extracellular domain of IGF2R (human, UniProt P11717 41-2304) (assay: phage ELISA on hIGF2R-ECD).
T3 construct: extracellular domain; Recombinant, immobilized on plates; also called hIGF2R-ECD; human IGF2R ectodomain (ECD)
Procedure: After the second selection round, 94 phage clones were randomly picked and assessed for binding to hIGF2R-ECD in a phage ELISA. Clones showing affinity were analyzed by restriction enzyme analysis using Hinfl and then categorized according to their restriction pattern. From each category, multiple clones were selected, and the amino acid sequences of these binders were identified (Table 2).
B10: binds.
B11: binds.
B12: binds.
B13: binds.
B14: binds.
B15: binds.
B16: binds.
B17: binds.
B18: binds.

Each binder was assayed against T1, recombinant rPDGFRB ectodomain (assay: phage ELISA and binding assay on rPDGFRB-ECD; values only in FIG. 6).
B19: binds.
B20: binds.
B21: binds.
B22: binds.
B23: binds.

What follows are binders tested against T3, recombinant human extracellular domain … (assay: direct binding assay of the Alexa Fluor 647 conjugate on hIGF2R-ECD, one-site specific binding fit).
Procedure: These conjugates were then subjected to direct binding assays on immobilized hIGF2R-ECD, meaning that plates were read out immediately after washing, without additional detection steps. […] For detailed analysis, binding parameters KD and Bₘₐₓ were calculated in Graphpad (version 8.3), using one-site specific binding analysis (FIG. 8D).
Based on their high affinity and binding to non-overlapping receptor epitopes, VHHs 13F11 and 13E8 were selected for the design of biparatopic and bivalent VHH constructs. Two VHHs were fused with a flexible linker, consisting of three Gly-Gly-Gly-Gly-Ser repeats (FIG. 8A). The sequences were codon optimized for expression in E. coli and obtained as synthesized DNA fragments from GeneArt. The DNA fragments encoding VHHs were cloned into a vector pET28-based vector introducing a C-terminal free cysteine for site-directed conjugation and His6 tag for IMAC purification (FIG. 8A). The VHH constructs were produced and purified as described in example 4. […] In a similar binding assay, IR dye 800 (IRD800) conjugates were prepared (as outlined in example 10.2) of the monomeric VHHs 13F11 and 13E8, the biparatopic VHH construct 13F11-13E8, the reciprocal biparatopic construct 13E8-13F11, the bivalent VHH construct 13F11-13F11, and the non-binding (control-) VHH R2. Conjugated constructs were then subjected to binding assay as described above.
B24 was tested, and the Kd was 3.1 nM.
